Laboratory results taken from publication PMC12645962.

Columns and labels:
[1] = biological target: 1059-SOSIP soluble Env trimer produced in FreeStyle 293 F cells (HIV-1 1059); experiment: SEC; HiLoad 16/600 Superdex 200 pg column after GNA lectin affinity purification; trimeric fractions taken
[2] = biological target: 1059-SOSIP soluble Env trimer produced in HEK293 cells grown in BalanCD medium (HIV-1 1059); experiment: as above

| Substance | stoichiometry N [1] | stoichiometry N [2] |
| --- | --- | --- |
| 1059-SOSIP soluble Env trimer produced in FreeStyle 293 F cells (domain or fragment) | 3 | – |
| 1059-SOSIP soluble Env trimer produced in HEK293 cells grown in BalanCD medium (domain or fragment) | – | 3 |
